Data: patent publication US20140287471A1, “VARIANT CBH I POLYPEPTIDES WITH REDUCED PRODUCT INHIBITION” (BP CORPORATION NORTN AMERICA INC., priority 2011, published 2014)
Where two headings read alike, the source gives them in different places.

Columns and labels:
[1] = 4-MUL cellobiose tolerance/inhibition assay, dose-response IC50 (Example 2); assay type: biochemical
Method in brief: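 IC50 reflects cellobiose concentration halving activity, fitted by four-parameter dose-response with zero activity fixed at knockout-strain background. Assays used 4-MUL (0.5 mM) with enzyme at 5 μg/mL or less, pH 6 MES, 25 mM gluconolactone blocking BG, cellobiose up to 100 mM; 4-MU fluorescence read.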

[2] = Saccharification assay (bagasse assay) with and without β-glucosidase (Example 1); assay type: biochemical; conditions: T. reesei CBH I variants; activity without β-glucosidase (BG) relative to with BG
Method: This assay measures the activity of CBH I on bagasse, a lignocellulosic substrate. Reactions were run in 10 ml vials with 5% dilute acid pretreated bagasse (250 mg solids per 5 ml reaction). Each reaction contained 4 mg CBH I enzyme/g solids, 200 mM MES pH 6, kanamycin, and chloramphenicol. Reactions were incubated at 35° C. in hybridization incubators (Robbins Scientific), rotating at 20 RPM. Time points were taken by transferring a sample of homogenous slurry (150 μl) into a 96-well deep well plate and quenching the reaction with stop buffer (450 μl of 500 mM sodium carbonate, pH 10). Time point measurements were taken every 24 hours for 72 hours.
Tolerance to cellobiose (or inhibition caused by cellobiose) was tested in two ways in the CBH I assays. A direct-dose tolerance method can be applied to all of the CBH I assays (i.e., 4-MUL, PASC, and/or bagasse assays), and entails the exogenous addition of a known amount of cellobiose into assay mixtures. A different indirect method entails the addition of an excess amount of β-glucosidase (BG) to PASC and bagasse assays (typically, 1 mg β-glucosidase/g solids loaded). BG will enzymatically hydrolyze the cellobiose generated during these assays; therefore, CBH I activity in the presence of BG can be taken as a measure of activity in the absence of cellobiose. Furthermore, when activity in the presence and absence of BG are similar, this indicates tolerance to cellobiose.

[3] = Secondary screening, CBH I levels normalized to 5 μg/mL, cellobiose range 0.00085-100 mM, read-out: IC50
[4] = secondary screening, CBH I levels normalized to 5 μg/mL, cellobiose range 0.0001-100 mM, read-out: Average IC50

Molecule	IC50 [1, 3] [µM]	IC50 ([1]; averaged IC50 values from Tables 8-11, read-out: measured IC50 of cellobiose (merged values)) [µM]	IC50 [1, 4] [µM]	Tolerance to cellobiose accumulation % Activity in Bagasse Assay (+/−BG) [2] [%]
411A: CBH I variant with site 411 mutated to alanine (protein, listed as Trichoderma reesei) QSACTLQSETHPPLTWQKCSSGGTCTQQTGSVVIDANWRWTHATNSSTNCYDGNTWSSTLCPDNETCAKNCCLDGAAYASTYGVTTSGNSLSIGFVTQSAQKNVGARLYLMASDTTYQEFTLLGNEFSFDVDVSQLPCGLNGALYFVSMDADGGVSKYPTNTAGAKYGTGYCDSQCPRDLKFINGQANVEGWEPSSNNANTGIGGHGSCCSEMDIWEANSISEALTPHPCTTVGQEICEGDGCGGTYSDNRYGGTCDPDGCDWNPYRLGNTSFYGPGSSFTLDTTKKLTVVTQFETSGAINRYYVQNGVTFQQPNAELGSYSGNELNDDYCTAEEAEFGGSSFSDKGGLTQFKKATSGGMVLVMSLWDDYYANMLWLDSTYPTNETSSTPGAVAGSCSTSSGVPAQVESQSPNAKVTFSNIKFGPIGSTGNPSGGNPPGGNPPGTTTTRRPATTTGSSPGPTQSHYGQCGGIGYSGPTVCASGTTCQVLNPYYSQCL	1060	1170	918	94
R268A: T. reesei CBH I with an R268A substitution (protein, listed as Trichoderma reesei) QSACTLQSETHPPLTWQKCSSGGTCTQQTGSVVIDANWRWTHATNSSTNCYDGNTWSSTLCPDNETCAKNCCLDGAAYASTYGVTTSGNSLSIGFVTQSAQKNVGARLYLMASDTTYQEFTLLGNEFSFDVDVSQLPCGLNGALYFVSMDADGGVSKYPTNTAGAKYGTGYCDSQCPRDLKFINGQANVEGWEPSSNNANTGIGGHGSCCSEMDIWEANSISEALTPHPCTTVGQEICEGDGCGGTYSDNAYGGTCDPDGCDWNPYRLGNTSFYGPGSSFTLDTTKKLTVVTQFETSGAINRYYVQNGVTFQQPNAELGSYSGNELNDDYCTAEEAEFGGSSFSDKGGLTQFKKATSGGMVLVMSLWDDYYANMLWLDSTYPTNETSSTPGAVRGSCSTSSGVPAQVESQSPNAKVTFSNIKFGPIGSTGNPSGGNPPGGNPPGTTTTRRPATTTGSSPGPTQSHYGQCGGIGYSGPTVCASGTTCQVLNPYYSQCL	574		423	86
R268K: T. reesei CBH I with an R268K substitution (protein, listed as Trichoderma reesei) MYRKLAVISAFLATARAQSACTLQSETHPPLTWQKCSSGGTCTQQTGSVVIDANWRWTHATNSSTNCYDGNTWSSTLCPDNETCAKNCCLDGAAYASTYGVTTSGNSLSIGFVTQSAQKNVGARLYLMASDTTYQEFTLLGNEFSFDVDVSQLPCGLNGALYFVSMDADGGVSKYPTNTAGAKYGTGYCDSQCPRDLKFINGQANVEGWEPSSNNANTGIGGHGSCCSEMDIWEANSISEALTPHPCTTVGQEICEGDGCGGTYSDNKYGGTCDPDGCDWNPYRLGNTSFYGPGSSFTLDTTKKLTVVTQFETSGAINRYYVQNGVTFQQPNAELGSYSGNELNDDYCTAEEAEFGGSSFSDKGGLTQFKKATSGGMVLVMSLWDDYYANMLWLDSTYPTNETSSTPGAVRGSCSTSSGVPAQVESQSPNAKVTFSNIKFGPIGSTGNPSGGNPPGGNPPGTTTTRRPATTTGSSPGPTQSHYGQCGGIGYSGPTVCASGTTCQVLNPYYSQCL	134		93	92
R411K: T. reesei CBH I with an R411K substitution (protein, UniProt P62694 18-513, looked up, variant R411K) Exoglucanase 1: QSACTLQSETHPPLTWQKCSSGGTCTQQTGSVVIDANWRWTHATNSSTNCYDGNTWSSTLCPDNETCAKNCCLDGAAYASTYGVTTSGNSLSIGFVTQSAQKNVGARLYLMASDTTYQEFTLLGNEFSFDVDVSQLPCGLNGALYFVSMDADGGVSKYPTNTAGAKYGTGYCDSQCPRDLKFINGQANVEGWEPSSNNANTGIGGHGSCCSEMDIWEANSISEALTPHPCTTVGQEICEGDGCGGTYSDNRYGGTCDPDGCDWNPYRLGNTSFYGPGSSFTLDTTKKLTVVTQFETSGAINRYYVQNGVTFQQPNAELGSYSGNELNDDYCTAEEAEFGGSSFSDKGGLTQFKKATSGGMVLVMSLWDDYYANMLWLDSTYPTNETSSTPGAVKGSCSTSSGVPAQVESQSPNAKVTFSNIKFGPIGSTGNPSGGNPPGGNRGTTTTRRPATTTGSSPGPTQSHYGQCGGIGYSGPTVCASGTTCQVLNPYYSQCL	3060		2080	89
